Data taken from the supplement of paper PMC11316812.
± gives the standard deviation of the averaged measurements.

What was measured:
MCF7 = assay: percentage of EdU-negative (G0-arrested) nuclei per well, 72 h; higher = more G0 arrest; conditions: reference: sequence is the full UniProt precursor, the tested protein was the secreted form or ectodomain
hTERT-HMEC = assay: as above; conditions: reference: sequence is the full UniProt precursor, the tested protein was the secreted form or ectodomain
[1] = protein concentration 0.0225 µM
[2] = protein concentration 0.0135 µM
[3] = protein concentration 0.0155 µM
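Note: secreted proteins added to cultured cells, EdU pulse at the end, nuclei found by Hoechst imaging, EdU status from nuclear versus surrounding ring intensity ratio, PBS as neutral control.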

## MLRAALPALLLPLLGLAAAAVADCPSSTWIQFQDSCYIFLQEAIKVESIEDVRNQCTDHGADMISIHNEEENAFILDTLKKQWKGPDDILLGMFYDTDDASFKWFDNSNMTFDKWTDQDDDEDLVDTCAFLHIKTGEWKKGNCEVSSVEGTLCKTAIPYKRKYLSDNHILISALVIASTVILTVLGAIIWFLYKKHSDSRFTTVFSTAPQSPYNEDCVLVVGEENEYPVQFD [Q8IX05]
MCF7; [1]
  percentage of EdU-negative: 25.83 ± 0.12%
MCF7; protein concentration 0.225 µM
  percentage of EdU-negative: 25.38 ± 0.14%
hTERT-HMEC; [1]
  percentage of EdU-negative: 4.48 ± 0.56%
hTERT-HMEC; protein concentration 0.225 µM
  percentage of EdU-negative: 5.29 ± 0.55%

## MLRAGWLRGAAALALLLAARVVAAFEPITVGLAIGAASAITGYLSYNDIYCRFAECCREERPLNASALKLDLEEKLFGQHLATEVIFKALTGFRNNKNPKKPLTLSLHGWAGTGKNFVSQIVAENLHPKGLKSNFVHLFVSTLHFPHEQKIKLYQDQLQKWIRGNVSACANSVFIFDEMDKLHPGIIDAIKPFLDYYEQVDGVSYRKAIFIFLSNAGGDLITKTALDFWRAGRKREDIQLKDLEPVLSVGVFNNKHSGLWHSGLIDKNLIDYFIPFLPLEYRHVKMCVRAEMRARGSAIDEDIVTRVAEEMTFFPRDEKIYSDKGCKTVQSRLDFH
MCF7; protein concentration 0.005 µM
  percentage of EdU-negative: 27.8 ± 1%
MCF7; protein concentration 0.05 µM
  percentage of EdU-negative: 24.9 ± 1.3%
hTERT-HMEC; protein concentration 0.005 µM
  percentage of EdU-negative: 5.1 ± 0.71%
hTERT-HMEC; protein concentration 0.05 µM
  percentage of EdU-negative: 6.38 ± 0.16%

## MLRFYLFISLLCLSRSDAEETCPSFTRLSFHSAVVGTGLNVRLMLYTRKNLTCAQTINSSAFGNLNVTKKTTFIVHGFRPTGSPPVWMDDLVKGLLSVEDMNVVVVDWNRGATTLIYTHASSKTRKVAMVLKEFIDQMLAEGASLDDIYMIGVSLGAHISGFVGEMYDGWLGRITGLDPAGPLFNGKPHQDRLDPSDAQFVDVIHSDTDALGYKEPLGNIDFYPNGGLDQPGCPKTILGGFQYFKCDHQRSVYLYLSSLRESCTITAYPCDSYQDYRNGKCVSCGTSQKESCPLLGYYADNWKDHLRGKDPPMTKAFFDTAEESPFCMYHYFVDIITWNKNVRRGDITIKLRDKAGNTTESKINHEPTTFQKYHQVSLLARFNQDLDKVAAISLMFSTGSLIGPRYKLRILRMKLRSLAHPERPQLCRYDLVLMENVETVFQPILCPELQL [Q8WWY8]
MCF7; [2]
  percentage of EdU-negative: 25.5 ± 2.4%
MCF7; protein concentration 0.135 µM
  percentage of EdU-negative: 29.4 ± 2.3%
hTERT-HMEC; [2]
  percentage of EdU-negative: 5.39 ± 1.9%
hTERT-HMEC; protein concentration 0.135 µM
  percentage of EdU-negative: 14.6 ± 3%

## MLRGISQLPAVATMSWVLLPVLWLIVQTQAIAIKQTPELTLHEIVCPKKLHILHKREIKNNQTEKHGKEERYEPEVQYQMILNGEEIILSLQKTKHLLGPDYTETLYSPRGEEITTKPENMEHCYYKGNILNEKNSVASISTCDGLRGYFTHHHQRYQIKPLKSTDEKEHAVFTSNQEEQDPANHTCGVKSTDGKQGPIRISRSLKSPEKEDFLRAQKYIDLYLVLDNAFYKNYNENLTLIRSFVFDVMNLLNVIYNTIDVQVALVGMEIWSDGDKIKVVPSASTTFDNFLRWHSSNLGKKIHDHAQLLSGISFNNRRVGLAASNSLCSPSSVAVIEAKKKNNVALVGVMSHELGHVLGMPDVPFNTKCPSGSCVMNQYLSSKFPKDFSTSCRAHFERYLLSQKPKCLLQAPIPTNIMTTPVCGNHLLEVGEDCDCGSPKECTNLCCEALTCKLKPGTDCGGDAPNHTTE
MCF7; [1]
  percentage of EdU-negative: 25.9 ± 0.54%
MCF7; protein concentration 0.225 µM
  percentage of EdU-negative: 27.7 ± 1.7%
hTERT-HMEC; [1]
  percentage of EdU-negative: 4.82 ± 0.43%
hTERT-HMEC; protein concentration 0.225 µM
  percentage of EdU-negative: 12.07 ± 0.12%

## MLRGTLLCAVLGLLRAQPFPCPPACKCVFRDAAQCSGGDVARISALGLPTNLTHILLFGMGRGVLQSQSFSGMTVLQRLMISDSHISAVAPGTFSDLIKLKTLRLSRNKITHLPGALLDKMVLLEQLFLDHNALRGIDQNMFQKLVNLQELALNQNQLDFLPASLFTNLENLKLLDLSGNNLTHLPKGLLGAQAKLERLLLHSNRLVSLDSGLLNSLGALTELQFHRNHIRSIAPGAFDRLPNLSSLTLSRNHLAFLPSALFLHSHNLTLLTLFENPLAELPGVLFGEMGGLQELWLNRTQLRTLPAAAFRNLSRLRYLGVTLSPRLSALPQGAFQGLGELQVLALHSNGLTALPDGLLRGLGKLRQVSLRRNRLRALPRALFRNLSSLESVQLDHNQLETLPGDVFGALPRLTEVLLGHNSWRCDCGLGPFLGWLRQHLGLVGGEEPPRCAGPGAHAGLPLWALPGGDAECPGPRGPPPRPAADSSSEAPVHPALAPNSSEPWVWAQPVTTGKGQDHSPFWGFYFLLLAVQAMITVIIVFAMIKIGQLFRKLIRERALG
MCF7; [3]
  percentage of EdU-negative: 24.8 ± 4.1%
MCF7; protein concentration 0.155 µM
  percentage of EdU-negative: 32.8 ± 1.1%
hTERT-HMEC; [3]
  percentage of EdU-negative: 4.92 ± 0.41%
hTERT-HMEC; protein concentration 0.155 µM
  percentage of EdU-negative: 9.145 ± 0.063%
